Experimental data reported in article PMC13639016.

Biological target: QatB (Escherichia coli NCTC9009)
Test: SEC-MALS

stoichiometry N | Substance
1 | QatD (enzyme)
1 | QatC (enzyme)
